In US20220380471A1 (US Dept. of Health and Human Services, published 2022):

Columns and labels:
[1] = biological target: T1, recombinant human B7H3-Fc protein (human, UniProt Q5ZPR3 29-466, limits assumed); assay: phage ELISA
T1 construct: 154 kDa non-reduced, 77 kDa reduced; also called hB7H3-Fc; not shown: Fc part
T1 sequence (looked up): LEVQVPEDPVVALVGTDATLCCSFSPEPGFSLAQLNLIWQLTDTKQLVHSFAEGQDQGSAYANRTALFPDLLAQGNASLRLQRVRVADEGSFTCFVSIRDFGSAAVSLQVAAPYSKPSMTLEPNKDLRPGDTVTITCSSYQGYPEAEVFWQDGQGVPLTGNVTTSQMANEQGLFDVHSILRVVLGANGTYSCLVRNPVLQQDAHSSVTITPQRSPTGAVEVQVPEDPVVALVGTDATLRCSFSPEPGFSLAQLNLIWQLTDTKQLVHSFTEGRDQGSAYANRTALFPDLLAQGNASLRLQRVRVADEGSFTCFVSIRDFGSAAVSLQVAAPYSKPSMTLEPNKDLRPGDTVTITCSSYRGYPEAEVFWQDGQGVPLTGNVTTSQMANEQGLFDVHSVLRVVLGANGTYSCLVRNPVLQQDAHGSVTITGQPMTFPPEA
Procedure, shortened: (§1)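 For 3 rounds, recombinant B7H3-Fc protein served as the panning target for camel VHH phage drawn from eight individual camels' libraries. Each entry gives the ELISA signal for binding of selected phage to an immobilised antigen, either human or other-species B7H3 or a control protein, measured by phage ELISA.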

IgG control = assay: phage ELISA
Procedure, shortened: as §1

monkey B7H3-His [2] = biological target: T2, monkey B7H3-His (monkey); assay: ELISA, purified VHH
T2 chain: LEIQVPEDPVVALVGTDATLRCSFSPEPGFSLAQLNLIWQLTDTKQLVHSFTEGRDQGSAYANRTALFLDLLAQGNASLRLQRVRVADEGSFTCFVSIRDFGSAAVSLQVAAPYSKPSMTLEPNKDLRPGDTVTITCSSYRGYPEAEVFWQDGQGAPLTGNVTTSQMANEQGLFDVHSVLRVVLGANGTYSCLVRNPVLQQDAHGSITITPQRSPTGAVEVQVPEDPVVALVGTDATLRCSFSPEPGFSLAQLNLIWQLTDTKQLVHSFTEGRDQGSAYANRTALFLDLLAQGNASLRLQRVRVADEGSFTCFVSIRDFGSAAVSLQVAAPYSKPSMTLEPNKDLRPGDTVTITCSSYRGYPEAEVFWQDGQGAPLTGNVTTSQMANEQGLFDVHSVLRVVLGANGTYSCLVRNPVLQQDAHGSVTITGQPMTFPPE
Procedure, shortened: (§2)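 Camel VHH nanobodies were isolated by phage panning on recombinant B7H3-Fc. After purification, their binding to immobilised B7H3 fusion proteins and non-B7H3 recombinant proteins was read out by ELISA and recorded as signal.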

[3] = biological target: T1, recombinant human B7H3-Fc protein; assay: ELISA, purified VHH
Procedure, shortened: as §2

monkey B7H3-His [4] = biological target: T2, monkey B7H3-His; assay: phage ELISA, cross-species
Procedure, shortened: as §1

human B7H3 [5] = biological target: T3, human B7H3 (human, UniProt Q5ZPR3 29-466, limits assumed); assay: phage ELISA, cross-species
T3 construct: also called human B7H3 protein
T3 sequence (looked up): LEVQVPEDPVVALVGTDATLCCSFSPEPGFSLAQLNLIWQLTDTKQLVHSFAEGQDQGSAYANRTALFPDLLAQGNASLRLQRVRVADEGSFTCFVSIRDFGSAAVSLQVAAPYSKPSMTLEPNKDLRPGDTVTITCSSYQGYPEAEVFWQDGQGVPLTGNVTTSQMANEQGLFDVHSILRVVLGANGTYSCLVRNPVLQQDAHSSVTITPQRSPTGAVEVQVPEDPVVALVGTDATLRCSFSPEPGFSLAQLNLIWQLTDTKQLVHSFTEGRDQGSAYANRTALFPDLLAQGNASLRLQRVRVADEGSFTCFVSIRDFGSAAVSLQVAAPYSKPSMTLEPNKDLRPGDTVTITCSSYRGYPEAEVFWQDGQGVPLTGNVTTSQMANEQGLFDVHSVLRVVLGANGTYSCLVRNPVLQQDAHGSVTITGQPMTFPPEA
Procedure, shortened: as §1

Non-relevant antigen = assay: phage ELISA, cross-species
Procedure, shortened: as §1

human B7H3 [6] = biological target: T3, human B7H3; assay: ELISA; row Human; well 2 of 3
Procedure, shortened: as §2

HN3-Fc = assay: ELISA; row HN3-Fc; well 3 of 3
Procedure, shortened: as §2

monkey B7H3-His [7] = biological target: T2, monkey B7H3-His; assay: ELISA; row Monkey; well 1 of 3
Procedure, shortened: as §2

monkey B7H3-His [8] = biological target: T2, monkey B7H3-His; assay: ELISA; row Monkey; well 2 of 3
Procedure, shortened: as §2

monkey B7H3-His [9] = biological target: T2, monkey B7H3-His; assay: ELISA; row Monkey; well 3 of 3
Procedure, shortened: as §2

[10] = biological target: T1, recombinant human B7H3-Fc protein; assay: ELISA; row B7H3-Fc; well 1 of 3
Procedure, shortened: as §2

[11] = biological target: T1, recombinant human B7H3-Fc protein; assay: ELISA; row B7H3-Fc; well 2 of 3
Procedure, shortened: as §2

B7H3 R&D = assay: ELISA; row B7H3 R&D; well 1 of 3
Procedure, shortened: as §2

[12] = biological target: T4, B7H3 (CD276) on MC38-CD276+ cells; assay: flow cytometry on MC38-CD276+ cells, VHH at 0.5 ug/ml
T4 construct: whole, on cells; MC38-CD276KO cells served as the negative control; also called MC38-B7H3+
T4 sequence (Q5ZPR3 1-534, species assumed, looked up): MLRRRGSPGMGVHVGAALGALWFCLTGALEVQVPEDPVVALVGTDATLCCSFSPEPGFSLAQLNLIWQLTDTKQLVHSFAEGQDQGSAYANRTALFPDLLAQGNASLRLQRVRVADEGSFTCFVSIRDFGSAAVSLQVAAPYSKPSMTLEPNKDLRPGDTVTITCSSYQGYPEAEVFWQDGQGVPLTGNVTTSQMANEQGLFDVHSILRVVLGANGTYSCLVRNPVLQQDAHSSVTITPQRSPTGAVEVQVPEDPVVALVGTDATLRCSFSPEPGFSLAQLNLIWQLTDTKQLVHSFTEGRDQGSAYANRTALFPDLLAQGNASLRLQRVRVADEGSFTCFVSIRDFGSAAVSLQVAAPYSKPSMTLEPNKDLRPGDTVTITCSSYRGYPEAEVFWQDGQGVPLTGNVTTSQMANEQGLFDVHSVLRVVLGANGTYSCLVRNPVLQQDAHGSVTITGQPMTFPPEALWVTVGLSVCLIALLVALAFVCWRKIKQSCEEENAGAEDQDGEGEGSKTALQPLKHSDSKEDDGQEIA

rat B7H3-His = biological target: T5, rat B7H3-His (rat, UniProt Q7TPB4 29-244, limits assumed); assay: phage ELISA, cross-species
T5 construct: not shown: His tag
T5 sequence (looked up): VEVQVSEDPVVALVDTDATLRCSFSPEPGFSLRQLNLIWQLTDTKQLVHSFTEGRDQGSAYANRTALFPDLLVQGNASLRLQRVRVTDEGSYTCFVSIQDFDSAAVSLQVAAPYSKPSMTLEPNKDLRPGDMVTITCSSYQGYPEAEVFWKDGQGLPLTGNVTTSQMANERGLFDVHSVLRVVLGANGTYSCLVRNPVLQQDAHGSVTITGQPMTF
Procedure, shortened: as §1

B1: RWC4 (VHH)
VHH: EVQLVESGGGSVQAGGSLRLSCVASEDSTSAMCMGWFRQAPGKEREGVACINPTGEVTWYGDSVKGRFTISRDTVKKIVYLQMNSLKPEDTAMYYCAARVTYGGDWSTDTDYEYWGQGTQVTVSS
notes: Camel VHH; tag not described; also called camel antibody RWC4
ELISA signal [1]: 2.66
ELISA signal (IgG control): 0.0777
ELISA signal (monkey B7H3-His [2]): 0.288
ELISA signal [3]: 2.02
ELISA signal (monkey B7H3-His [4]): 1.54
ELISA signal (human B7H3 [5]): 2.5
ELISA signal (Non-relevant antigen): 0.0764
ELISA reading (name not given) (human B7H3 [6]): 0.979
ELISA reading (name not given) (HN3-Fc): 0.0467
ELISA reading (name not given) (monkey B7H3-His [7]): 1
ELISA reading (name not given) (monkey B7H3-His [8]): 1
ELISA reading (name not given) (monkey B7H3-His [9]): 1.04
ELISA reading (name not given) [10]: 2.01
ELISA reading (name not given) [11]: 1.99
ELISA reading (name not given) (B7H3 R&D): 0.132
Positive rates [12]: 14.4%

B2: RWG8 (VHH)
VHH: DVQLVESGGGLVQPGGSLRLSCAASGFTFSRYWMGWFRQAPGKGVEWVSTINSGGGSTYYADSVKGRFTISRDNAKNTLYLQLNNLKTEDTAMYYCAKEQWRTGSRGQGTQVTVSS
notes: Camel VHH; tag not described; also called camel antibody RWG8
ELISA signal [1]: 2.52
ELISA signal (IgG control): 0.101
ELISA signal (monkey B7H3-His [2]): 0.117
ELISA signal [3]: 0.641
ELISA signal (monkey B7H3-His [4]): 2.43
ELISA signal (rat B7H3-His): 2.44
ELISA signal (human B7H3 [5]): 2.67
ELISA signal (Non-relevant antigen): 0.0659
ELISA reading (name not given) (human B7H3 [6]): 0.147
ELISA reading (name not given) (HN3-Fc): 0.0535
ELISA reading (name not given) (monkey B7H3-His [7]): 0.197
ELISA reading (name not given) (monkey B7H3-His [8]): 0.198
ELISA reading (name not given) (monkey B7H3-His [9]): 0.195
ELISA reading (name not given) [10]: 1.97
ELISA reading (name not given) [11]: 2.01
ELISA reading (name not given) (B7H3 R&D): 0.0696
Positive rates [12]: 0.1%

B3: RWB12 (VHH)
VHH: QVQLVESGGGSVQVGGSLRLSCAASGFTYNSYSVGWFRQAPGKEREGVAAINSGGSSTYYAASVKGRFTISRDNAKNTVYLQMNSLKPEDTAMYYCAARSPSPLTFQTRTLREDSYNYWGQGTQVTVSS
notes: Camel VHH; tag not described; also called camel antibody RWB12
ELISA signal [1]: 2.48
ELISA signal (IgG control): 0.164
ELISA signal (monkey B7H3-His [2]): 0.164
ELISA signal [3]: 0.568
ELISA signal (monkey B7H3-His [4]): 2.31
ELISA signal (rat B7H3-His): 2.07
ELISA signal (human B7H3 [5]): 2.74
ELISA signal (Non-relevant antigen): 0.0597
ELISA reading (name not given) (human B7H3 [6]): 0.21
ELISA reading (name not given) (HN3-Fc): 0.048
ELISA reading (name not given) (monkey B7H3-His [7]): 0.188
ELISA reading (name not given) (monkey B7H3-His [8]): 0.201
ELISA reading (name not given) (monkey B7H3-His [9]): 0.178
ELISA reading (name not given) [10]: 0.878
ELISA reading (name not given) [11]: 0.945
ELISA reading (name not given) (B7H3 R&D): 0.0582
Positive rates [12]: 0.23%

B4: RWG4 (VHH)
VHH: QVQLVQSGGGLVQPGGSLRLSCAASGFTFSVYWFYWVRQAPRQGLEWVSTIASNGSTYYSDSVKGRFTISRDNAKNTVYLQMNSLKPEDTAVYYCVSDPDYYSDYERAYKFWAQGTQVTVSS
notes: Camel VHH; tag not described; also called camel antibody RWG4
ELISA signal [1]: 2.13
ELISA signal (IgG control): 0.103
ELISA signal (monkey B7H3-His [2]): 1.81
ELISA signal [3]: 2.54
ELISA signal (monkey B7H3-His [4]): 0.19
ELISA signal (rat B7H3-His): 0.292
ELISA signal (human B7H3 [5]): 1.72
ELISA signal (Non-relevant antigen): 0.14
Positive rates [12]: 1.25%
